Experimental data: US9976134B2, “Thermolysin variants” (Danisco US Inc., priority 2007, dated 2018)

T1: thermolysin (Bacillus thermoproteolyticus, UniProt P00800)
T1 construct: purchased Sigma
T1 sequence (P00800 233-548): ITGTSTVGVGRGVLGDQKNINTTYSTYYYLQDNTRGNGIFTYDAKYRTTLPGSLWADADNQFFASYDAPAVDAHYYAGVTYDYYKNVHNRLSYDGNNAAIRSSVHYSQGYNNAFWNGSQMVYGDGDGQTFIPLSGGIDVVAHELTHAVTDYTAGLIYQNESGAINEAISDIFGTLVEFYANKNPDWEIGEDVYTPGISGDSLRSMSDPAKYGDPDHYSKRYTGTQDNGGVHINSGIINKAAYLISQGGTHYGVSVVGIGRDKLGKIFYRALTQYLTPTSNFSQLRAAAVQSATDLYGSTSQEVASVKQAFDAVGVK


What was measured:
[1] = target: T1, thermolysin; assay: Stabilisation of thermolysin in Unilever ALL Small and Mighty detergent by metalloproteinase inhibitors (SDS-PAGE); conditions: thermolysin 800 μg/ml in Unilever ALL Small and Mighty, FIG. 8
Experimental: Zinc Chloride, Phosphoramidon, Galardin are known metalloproteinase inhibitors. They were purchased from Sigma and dissolved in water or DMSO. Different concentrations of the inhibitors were premixed with thermolysin (also referred to as Proteinase-T or PrT) for 10 min at room temperature. Then the inhibitors were added into Unilever detergent ALL Small and Mighty so that the final concentration of thermolysin was 800 μg/ml in a total volume of 1 ml. At different time points, samples were taken and precipitated with TCA. Briefly, 10 μl sample of detergent with enzyme was added into 500 μl of 0.2 N HCl on ice, and then 500 μl of 20% TCA was added. The tubes were mixed and incubated on ice for 20 min. The pellet was collected and washed with 90% ice-cold acetone. The pellet was dissolved in sample loading buffer (Invitrogen) for SDS-PAGE analysis.

[2] = TIDE 2X 0.78 g/l, 6 gpg, pH 8.2, 30 min at 20°C, A405; variant vs wild-type thermolysin at same protein concentration
[3] = Stability assay in 25% TIDE 2X detergent with DTPA (residual Abz-AGLA-Nba protease activity); type: physicochemical; conditions: 60 min at 32°C; variant residual AGLA activity divided by wild-type residual activity
Summary of the method: (§1)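 Thermolysin variant culture supernatants stressed in TIDE 2× detergent, with or without DTPA: 60 min at 32° C or 180 min at 50° C. Residual versus unstressed activity on Abz-AGLA-Nba read kinetically at 25° C (Ex 350/Em 420). Performance index is variant residual activity divided by wild-type thermolysin residual activity.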

[4] = Stability assay in 25% TIDE 2X detergent without DTPA (residual Abz-AGLA-Nba protease activity); type: physicochemical; conditions: 180 min at 50°C; variant residual AGLA activity divided by wild-type residual activity
Summary of the method: as §1

| Molecule | stabilisation of thermolysin in detergent ([1]; 1 mM inhibitor) | stabilisation of thermolysin in detergent ([1]; 500 μM inhibitor) | PI (performance index), stain removal [2] | PI (relative stability), 25% TIDE 2X with DTPA [3] | PI (relative stability), 25% TIDE 2X without DTPA [4] |
| --- | --- | --- | --- | --- | --- |
| CNC(=O)[C@H](Cc1c[nH]c2ccccc12)NC(=O)[C@@H](CC(=O)NO)CC(C)C [Galardin] | significantly stabilize thermolysin in detergent |  |  |  |  |
| CC(C)C[C@H](NP(=O)(O)O[C@@H]1O[C@@H](C)[C@H](O)[C@@H](O)[C@H]1O)C(=O)N[C@@H](Cc1c[nH]c2ccccc12)C(=O)O [Phosphoramidon] |  | significantly stabilize thermolysin in detergent |  |  |  |
| Q128V: single-substitution thermolysin variant (SEQ ID NO:3 numbering) (protein, listed as Geobacillus caldoproteolyticus) ITGTSTVGVGRGVLGDQKNINTTYSTYYYLQDNTRGNGIFTYDAKYRTTLPGSLWADADNQFFASYDAPAVDAHYYAGVTYDYYKNVHNRLSYDGNNAAIRSSVHYSQGYNNAFWNGSQMVYGDGDGVTFIPLSGGIDVVAHELTHAVTDYTAGLIYQNESGAINEAISDIFGTLVEFYANKNPDWEIGEDVYTPGISGDSLRSMSDPAKYGDPDHYSKRYTGTQDNGGVHINSGIINKAAYLISQGGTHYGVSVVGIGRDKLGKIFYRALTQYLTPTSNFSQLRAAAVQSATDLYGSTSQEVASVKQAFDAVGVK |  |  | 1.07 | 1.45 | 1.20 |
| T049N: single-substitution thermolysin variant (SEQ ID NO:3 numbering) (protein, listed as Geobacillus caldoproteolyticus) ITGTSTVGVGRGVLGDQKNINTTYSTYYYLQDNTRGNGIFTYDAKYRTNLPGSLWADADNQFFASYDAPAVDAHYYAGVTYDYYKNVHNRLSYDGNNAAIRSSVHYSQGYNNAFWNGSQMVYGDGDGQTFIPLSGGIDVVAHELTHAVTDYTAGLIYQNESGAINEAISDIFGTLVEFYANKNPDWEIGEDVYTPGISGDSLRSMSDPAKYGDPDHYSKRYTGTQDNGGVHINSGIINKAAYLISQGGTHYGVSVVGIGRDKLGKIFYRALTQYLTPTSNFSQLRAAAVQSATDLYGSTSQEVASVKQAFDAVGVK |  |  | 1.10 | 1.03 | 1.07 |
| Q128Y: single-substitution thermolysin variant (SEQ ID NO:3 numbering) (protein, listed as Geobacillus caldoproteolyticus) ITGTSTVGVGRGVLGDQKNINTTYSTYYYLQDNTRGNGIFTYDAKYRTTLPGSLWADADNQFFASYDAPAVDAHYYAGVTYDYYKNVHNRLSYDGNNAAIRSSVHYSQGYNNAFWNGSQMVYGDGDGYTFIPLSGGIDVVAHELTHAVTDYTAGLIYQNESGAINEAISDIFGTLVEFYANKNPDWEIGEDVYTPGISGDSLRSMSDPAKYGDPDHYSKRYTGTQDNGGVHINSGIINKAAYLISQGGTHYGVSVVGIGRDKLGKIFYRALTQYLTPTSNFSQLRAAAVQSATDLYGSTSQEVASVKQAFDAVGVK |  |  | 1.13 | 1.09 | 1.05 |
| Y151T: single-substitution thermolysin variant (SEQ ID NO:3 numbering) (protein, listed as Geobacillus caldoproteolyticus) ITGTSTVGVGRGVLGDQKNINTTYSTYYYLQDNTRGNGIFTYDAKYRTTLPGSLWADADNQFFASYDAPAVDAHYYAGVTYDYYKNVHNRLSYDGNNAAIRSSVHYSQGYNNAFWNGSQMVYGDGDGQTFIPLSGGIDVVAHELTHAVTDTTAGLIYQNESGAINEAISDIFGTLVEFYANKNPDWEIGEDVYTPGISGDSLRSMSDPAKYGDPDHYSKRYTGTQDNGGVHINSGIINKAAYLISQGGTHYGVSVVGIGRDKLGKIFYRALTQYLTPTSNFSQLRAAAVQSATDLYGSTSQEVASVKQAFDAVGVK |  |  | 1.13 | 1.18 | 1.10 |
| Y151N: single-substitution thermolysin variant (SEQ ID NO:3 numbering) (protein, listed as Geobacillus caldoproteolyticus) ITGTSTVGVGRGVLGDQKNINTTYSTYYYLQDNTRGNGIFTYDAKYRTTLPGSLWADADNQFFASYDAPAVDAHYYAGVTYDYYKNVHNRLSYDGNNAAIRSSVHYSQGYNNAFWNGSQMVYGDGDGQTFIPLSGGIDVVAHELTHAVTDNTAGLIYQNESGAINEAISDIFGTLVEFYANKNPDWEIGEDVYTPGISGDSLRSMSDPAKYGDPDHYSKRYTGTQDNGGVHINSGIINKAAYLISQGGTHYGVSVVGIGRDKLGKIFYRALTQYLTPTSNFSQLRAAAVQSATDLYGSTSQEVASVKQAFDAVGVK |  |  | 1.19 | 1.25 | 1.05 |
